Assay results taken from patent publication US20140348785A1.

Target: biotinylated gp41 MPER peptide RRR-(656-683)-RRK-biotin (HIV-1)
Test: SPR: biotinylated MPER peptide on an SA chip, Fab as analyte, 1:1 Langmuir fit

| Substance | Kd |
| --- | --- |
| 2F5 Fab | 3.8 nM |
| 4E10 Fab | 0.74 nM |
